Holding throughout (experiment): BLI
For assay [1], the target named is HA of A/Brisbane/10/2007 (H3N2) virus (influenza A virus A/Brisbane/10/2007 …).
In assay [2] the target is A/Panama/2007/1999 H3N2 HA, soluble trimeric (influenza A virus A/Panama/2007/1999 …).
The target of assay [3] is A/Minnesota/11/2010 H3N2v HA, soluble, biotinylated (wild type) (influenza A virus A/Minnesota/11/2010 …).

B1: H3v-47 Fab (Fab, V domains shown)
VH: QVQLVQSGAEVKKPGSSVRVSCKASGDTFSSYSITWVRQAPGHGLQWMGGIFPIFGSTNYAQKFDDRLTITTDDSSRTVYMELTSLRLEDTAVYYCARGASKVEPAAPAYSDAFDMWGQGTLVTVSS
VL: DIVMTQSPGTLSLSPGERATLSCRTSQGVSSSYLAWYQQKPGQAPRLLISGSSSRATGIPDRFSGSGSGRDFTLTISRLEPEDSAVYYCQQYATSPTFGQGTRVEIK
B1: the Kd in assay [1] and in assay [2] was < 5 nM each time.

B2: H3v-47 IgG (antibody, V domains shown)
VH: B1 VH
VL: B1 VL
For the molecule B2, the Kd in assay [3] is < 0.001 nM.

(Values after paper PMC6039445 (2018).)
